From US20180127480A1 (Stanford University, published 2018)
Numbering of substitutions follows the chain as printed. In names and notes the source's numbering stands.

B1: N3612 F14C coupled to Alexa Fluor 647 (designed binder)
chain: WQPPLLFNKTKSVEFTCGNDTVVIPCFVTNMEAQNTTEVYVKWKFKGRDIYTFDGQANKSTVPTDFSSAKIEVSQLLKGDASLKMDKSDAVSHTGNYTCEVTELTREGETIIELKYRVVSHHHHHHHH
modifications: Alexa Fluor 647 maleimide on the cysteine at position 14 (F14C, mature CD47 numbering)
B2: N3612 C15 coupled to Alexa Fluor 647 (designed binder)
chain: B1 chain with C17F, G18C
modifications: Alexa Fluor 647 (maleimide chemistry) on the cysteine at position 15 (mature CD47 numbering)
notes: The production of this form is not described separately
B3: biotinylated high affinity CD47 variant N3612 C15G (designed binder)
chain: WQPPLLFNKTKSVEFTFGNDTVVIPCFVTNMEAQNTTEVYVKWKFKGRDIYTFDGQANKSTVPTDFSSAKIEVSQLLKGDASLKMDKSDAVSHTGNYTCEVTELTREGETIIELKYRVVSGLNDIFEAQKIEWHE
modifications: biotin on the biotin acceptor peptide tag (BirA ligase)
notes: An 8x histidine tag is probably also present (Ni-NTA purification)

Target: T1, SIRPα a1d1 expressed on yeast (human, UniProt P78324 31-149, limits assumed)
T1 construct: domain: domain 1; also called SIRPα a1d1-expressing yeast
T1 sequence (P78324 31-149 limits assumed): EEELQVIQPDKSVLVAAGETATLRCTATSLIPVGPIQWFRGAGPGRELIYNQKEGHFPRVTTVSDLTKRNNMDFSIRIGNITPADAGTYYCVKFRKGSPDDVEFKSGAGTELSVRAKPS
Assay: flow cytometry titration on yeast expressing SIRPα a1d1
Source text: FIG. 6B Graph showing binding of different CD47 species to SIRPα a1d1-expressing yeast in titration experiments. […] FIG. 6C Graph showing binding to SIRPα a2d1-expressing yeast in titration experiments (CD47 species are the same as in FIG. 6B).
High affinity CD47 variants were modified to produce diagnostic agents. […] In the original high affinity CD47 variants isolated, the cysteine at position 15 (C15) had been changed to a G (C15G variants). To enable coupling of high affinity CD47 variants to a fluorescent moiety, position 15 was reverted to a Cysteine (C15) or the Phenylalanine (F) at position 14 was changed to a Cysteine (F14C). Binding of such reagents to SIRPα was tested. […] As shown in these figures, the high affinity CD47 reagents can detect SIRPα expression on cells, both engineered and non-engineered, much better than the wildtype molecule. Indeed, as show in FIG. 6D, these reagents can perform as well as anti-SIRPα antibody in such assays.

Binder | EC50 (read off the curve) [nM]
B1 | ~5
B2 | ~5
B3 | ~3
